For one substance, stoichiometry N results are on record in paper PMC4838861.

Assay [1] concerns the target yeast V-ATPase c subunit ring (c8c’c”) (S. cerevisiae) (UniProt P25515). In words: negative-stain EM with single-particle class averaging; c-ring (1.5 mg/ml) mixed with DOPC, detergent removed with BioBeads for 7 days (incomplete); 4337 images of dumbbell-shaped particles outside the bilayers sorted into 16 classes (EMAN1.9).
For assay [2] the target is unchanged. Briefly: SEC + other: negative-stain EM; purified c-ring (1 mg) on Superdex 200 in buffer with 0.1% DDM (also in UnDM or DM); peak fractions 48 and 58 viewed by negative-stain EM.

Usually stoichiometry N stands for a count of units in the complex or per binding partner. As for “yeast V-ATPase c subunit ring (c8c’c”) (from UniProt P25515 1-160; P32842 1-164; P23968 1-213) (complex)”, the stoichiometry N in assay [1] and in assay [2] was 2 throughout.
